Consider 11 sequences from the supplement of paper PMC9170038.

The subject of series [1] is MS2 coat protein. The series is described as follows: apparent KD of MS2 coat protein; designed switch direction (-1 OFF switch, 1 ON switch): -1; higher = weaker reporter binding. As to conditions: Eterna round: R98. On the procedure:
(§1)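 RNA-MaP: designed FMN/MS2 RNA switches (84 nt design region) are transcribed on-chip within common flanks and titrated with SNAP-549-labelled MS2 coat protein (about 1-3000 nM) in 100 mM Tris pH 7.5, 80 mM KCl, 4 mM MgCl2, without or with 200 uM FMN. Median apparent KD per design; activation ratio = KD,OFF / KD,ON.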

The subject of series [2] is MS2 coat protein. Nature of the series: apparent KD of MS2 coat protein; higher = weaker reporter binding. The settings on record: Eterna round: R101. How it is done: as §1

Regarding “AGAUGACAAAGUCAUCUCGCUCUGACAUGAGGAUCACCCAUGUAGGAUAUAUUACUCAAAGAGUAAUAGAAGGACAUGUUUCUG [Ex NG2 #64]”, the “apparent KD of MS2 coat protein” value in series [1] (input ligand: FMN 200 uM) was determined as 65.5 nM; in series [1] (input ligand: none), 36 nM.

On to “CAGAUAAAAGUGAGGUCGUCGACAUGAGGAUCACCCAUGUACGAGGAUAUGUAAUAUACGGUAUAGCAGAAGGCGUAUGGGUGU [Edrageer]”, for which the “apparent KD of MS2 coat protein” value in series [1] (input ligand: FMN 200 uM) was determined as 120 nM; in series [1] (input ligand: none), 30.5 nM. As for “CUUAGUUUGUAGAAGGGUGACAUGAGGAUCACCCAUGUGCGUAGCCUGAAAGACCAGGGUACGCCACAGGAUAUACAAAGUAAG [Onenisa] (puzzle (switch architecture): Inverted Same State NG 2)”, the results for the “apparent KD of MS2 coat protein” value in series [2] (input ligand: FMN 200 uM) and in series [2] (input ligand: none) were 84.9 nM and 57.4 nM, respectively. As to “GGCAGCCCUCAGAAGGGAGUGCGAUAAUCGCACUCAGGAUAUGAGGAUCACCCAUAUCAAGCUGCCACUGAGGCAAAGCCUCAG [#SharedSequence - IEx NG 1-1] (puzzle (switch architecture): Inverted Exclusion NG 1)”, the entries for the “apparent KD of MS2 coat protein” value in series [2] (input ligand: FMN 200 uM) and in series [2] (input ligand: none) were 57.4 nM and 12.1 nM, respectively.

Regarding “GGUACUCAAAGAGUACCAAUACGAACAUGAGGAUCACCCAUGUAGGAUAUGCUACUCAAAGAGUAGCAGAAGGACAUGUGCCUA [OmeiMod 7 - Jieux - Exclusion NG 3]”, the “apparent KD of MS2 coat protein” value stood at 422 nM in series [1] (input ligand: FMN 200 uM) and 38.7 nM in series [1] (input ligand: none). “GUCACGAAUGUAGGAUAUCGAGUGGAUAACACUCGAGAAGGACAUGAGGAUCACCCAUGUCAAAUGAAAGAUAAUAAACGUGAC [Exclsuion NG 1/3-B2]”: the “apparent KD of MS2 coat protein” value in series [1] (input ligand: FMN 200 uM) is 20.6 nM; in series [1] (input ligand: none), 15.8 nM. “GUCCCUACAUGAGGAUCACCCAUGUGGGCAGUAAGAAGCCCACAGGAUAUGCGAAGGAGGACAUAGCAGAAGGGUGGUGUUUAG [Reaninveri] (puzzle (switch architecture): Same State NG 3)”: the figures for the “apparent KD of MS2 coat protein” value in series [2] (input ligand: FMN 200 uM) and in series [2] (input ligand: none) were 138 nM and 625 nM, respectively.

For “GUCCCUACAUGAGGAUCACCCAUGUGGGCGGUAAGGAGCCCACAGGAUAUGCGAAGGAGGACAUAGCAGAAGGGUGGUGUUCAG [Erenerbe] (puzzle (switch architecture): Same State NG 3)”, the “apparent KD of MS2 coat protein” value stood at 33.5 nM in series [2] (input ligand: FMN 200 uM) and 308 nM in series [2] (input ligand: none). “GUUAUCUCAUGUUCGACGGACAUGAGGAUCACCCAUGUACCUUAGGAUAUUGAUGAAAUAUGGCGCAAGAAGGAAGGUAACGCU [EternaBot964] (puzzle (switch architecture): Exclusion NG 3)”: in series [2] (input ligand: FMN 200 uM), the “apparent KD of MS2 coat protein” value is 7.51 nM.

For the sequence “UAUAUAUAGGCAGGAUAUACAUGUAUAUAUAAUUUAUUAUAUAUUAUUACAUGAGGAUCACCCAUGUAGAAGGGCCAUAUUAUA [LRO037_Exclusion NG 2]”, the “apparent KD of MS2 coat protein” value in series [1] (input ligand: FMN 200 uM) is 51.2 nM; in series [1] (input ligand: none), 30.1 nM. Taken in the same sequence, the figures for “UUGCUCAAUUGGGCAGGGACCUCACAUGAGGAUCACCCAUGUCAGGAUAUCCUAGUUUGGACGUAGGAGAAGGGACGGAGUAUC [Usanat]” were 250 nM and 167 nM.
